# Laboratory results published in patent US20170022275A1 (Dana-Farber, published 2017).
# T1: MICA*009 (human, UniProt Q29983 26-307)
# T1 construct: also called MICA allele 009
# T1 chain: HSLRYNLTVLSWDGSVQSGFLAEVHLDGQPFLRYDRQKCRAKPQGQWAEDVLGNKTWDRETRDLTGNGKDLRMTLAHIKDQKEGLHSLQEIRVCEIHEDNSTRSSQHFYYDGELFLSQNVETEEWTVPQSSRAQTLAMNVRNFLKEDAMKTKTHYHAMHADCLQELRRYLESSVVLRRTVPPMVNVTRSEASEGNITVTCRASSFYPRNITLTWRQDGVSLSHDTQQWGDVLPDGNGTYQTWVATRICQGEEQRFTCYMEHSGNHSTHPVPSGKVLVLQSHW
# B1: CM33322 Ab4 (antibody, V domains shown)
# VH: QVQLQESGPGLVRPSGTLSLTCAVSGGSIDYSNWWGWVRQVPGKGLEWIGEVYHTGATHYNPSLERRCIISVDKSNNQVSLQLTSVTAADSAIYYCARERGTHCDGNRCYYVFFDHWGQGIPVTVSS
# VL: DIVMTQTPLSSPVTLGQPASISCRSSESLVHWDGTTYLSWFHQRPGQPPRLLIYKVSNRFSGVPDRFSGSGAGTDFTLKISRVEADDVGIYYCMQATQFPRTFGQGTKVEIKR
# notes: also called anti-MICA antibody ID-11; antibody ID 11
# Tests used:
# [1] = target: MICA antigen (UniGene Hs.130838) with C-terminal BirA tag (human) (UniProt Q29983); experiment: flow cytometry of MICA-coated streptavidin beads, Alexa488 anti-human IgG; antibody 6 µg/ml; uncoated SA bead: 2.63
# Chain of MICA antigen (UniGene Hs.130838) with C-terminal BirA tag (human) (Q29983 other isoform, or with tags, fused parts or gaps limits assumed): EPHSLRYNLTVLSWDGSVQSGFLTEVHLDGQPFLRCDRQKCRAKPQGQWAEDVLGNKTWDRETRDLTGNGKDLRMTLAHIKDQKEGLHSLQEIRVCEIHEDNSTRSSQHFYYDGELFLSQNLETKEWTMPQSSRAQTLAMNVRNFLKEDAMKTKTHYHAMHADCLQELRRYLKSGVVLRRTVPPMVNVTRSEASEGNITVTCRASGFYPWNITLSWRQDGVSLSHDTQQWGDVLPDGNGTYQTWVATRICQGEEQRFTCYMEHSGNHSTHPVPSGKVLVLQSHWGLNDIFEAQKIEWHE
# [2] = target: MICA antigen (UniGene Hs.130838) with C-terminal BirA tag (human) (UniProt Q29983); experiment: flow cytometry of MICA-coated streptavidin beads, Alexa488 anti-human IgG; antibody 30 µg/ml; uncoated SA bead: 3.53
# [3] = target: MICA antigen (UniGene Hs.130838) with C-terminal BirA tag (human) (UniProt Q29983); experiment: flow cytometry of MICA-coated streptavidin beads, Alexa488 anti-human IgG; antibody 1.2 µg/ml; uncoated SA bead: 2.16
# [4] = target: MICA antigen (UniGene Hs.130838) with C-terminal BirA tag (human) (UniProt Q29983); experiment: flow cytometry of MICA-coated streptavidin beads, Alexa488 anti-human IgG; antibody 0.24 µg/ml; uncoated SA bead: 2.3
# [5] = target: MICA antigen (UniGene Hs.130838) with C-terminal BirA tag (human) (UniProt Q29983); experiment: flow cytometry of MICA-coated streptavidin beads, Alexa488 anti-human IgG; antibody 0.05 µg/ml; uncoated SA bead: 2.18
# [6] = target: MICA antigen (UniGene Hs.130838) with C-terminal BirA tag (human) (UniProt Q29983); experiment: flow cytometry of MICA-coated streptavidin beads, antibody directly PE-conjugated; 0.002 µg/ml; uncoated SA bead: 2.16
# [7] = target: MICA on the surface of cells (human) (UniProt Q29983); experiment: flow cytometry on B16 melanoma cells transduced with human MICA, antibody 10 µg/ml; B16 MICA unstained 11.4; same antibody on untransduced B16: 7.49 (B16 unstained 7.12)
# Chain of MICA on the surface of cells (human) (Q29983 24-383): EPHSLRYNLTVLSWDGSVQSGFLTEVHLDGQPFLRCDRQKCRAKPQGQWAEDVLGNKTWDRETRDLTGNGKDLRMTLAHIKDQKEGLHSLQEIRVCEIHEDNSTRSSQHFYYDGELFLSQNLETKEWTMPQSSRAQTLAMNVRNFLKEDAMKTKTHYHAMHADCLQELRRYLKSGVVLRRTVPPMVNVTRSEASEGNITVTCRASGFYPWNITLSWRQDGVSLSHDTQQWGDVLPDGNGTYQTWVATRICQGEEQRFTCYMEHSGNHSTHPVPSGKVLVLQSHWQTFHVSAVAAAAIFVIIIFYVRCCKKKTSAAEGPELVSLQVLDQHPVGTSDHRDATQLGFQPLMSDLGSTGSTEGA
# [8] = target: MICA antigen (UniGene Hs.130838) with C-terminal BirA tag (human) (UniProt Q29983); experiment: flow cytometry of MICA-coated streptavidin beads, antibody directly PE-conjugated; legend box says 0.005ug, the label in the panel says 1.2 µg/ml (they do not agree); uncoated SA bead: 1.98
# [9] = target: MICA antigen (UniGene Hs.130838) with C-terminal BirA tag (human) (UniProt Q29983); experiment: flow cytometry of MICA-coated streptavidin beads, antibody directly PE-conjugated; legend box says 0.12ug, the label in the panel says 0.05 µg/ml (they do not agree); uncoated SA bead: 1.95
# [10] = target: MICA antigen (UniGene Hs.130838) with C-terminal BirA tag (human) (UniProt Q29983); experiment: flow cytometry of MICA-coated streptavidin beads, antibody directly PE-conjugated; legend box says 0.001ug, the label in the panel says 0.24 µg/ml (they do not agree); uncoated SA bead: 1.95
# [11] = target: MICA antigen (UniGene Hs.130838) with C-terminal BirA tag (human) (UniProt Q29983); experiment: flow cytometry of MICA-coated streptavidin beads, antibody directly PE-conjugated; legend box says 0.024ug, the label in the panel says 0.01 µg/ml (they do not agree); uncoated SA bead: 1.95
# [12] = target: T1, MICA*009; experiment: array of overlapping 20-aa peptides of MICA*009 extracellular domains
molecule,measurement,setting,value
negative control antibody (TTCF specific),unnamed fluorescence number (FL1-H),[1],2.62
same,unnamed fluorescence number (FL1-H),[2],3.43
same,unnamed fluorescence number (FL1-H),[3],2.27
same,unnamed fluorescence number (FL1-H),[4],2.28
same,unnamed fluorescence number (FL1-H),[5],2.23
"commercially available anti-MICA/MICB monoclonal antibody (clone 6D4), BioLegend",unnamed fluorescence number (FL2-H),[6],4.31
same,Geom. Mean:FL1-H,[7],188
same,unnamed fluorescence number (FL2-H),[8],65.9
same,unnamed fluorescence number (FL2-H),[9],391
same,unnamed fluorescence number (FL2-H),[10],16.8
same,unnamed fluorescence number (FL2-H),[11],194
B1,binding result,[12],binds
